Ends that are not written are not given here. * marks the point of attachment. FITC = O=C1OC2(c3ccc(O)cc3Oc3cc(O)ccc32)c2ccc(NC(=S)*)cc21
What was measured:
Conditions in all cases: both partners purified
[1] = target: T1, GST-tagged USP8 MIT domain (1-142) (human, UniProt P40818 1-142); experiment: peptide or protein array; SPOT array, cellulose-bound peptides; GST-tagged MIT domain 100 µM in 5% skim milk in TBST overnight at 4 °C; detected with HRP-conjugated anti-GST antibody
T1 construct: Ubiquitin carboxyl-terminal hydrolase 8 (USP8), human, MIT domain, residues 1-142; pETM33 vector, synthesized by GenScript; source: E. coli BL21-Gold (DE3), purified (glutathione sepharose, eluted with reduced glutathione)
T1 sequence (looked up): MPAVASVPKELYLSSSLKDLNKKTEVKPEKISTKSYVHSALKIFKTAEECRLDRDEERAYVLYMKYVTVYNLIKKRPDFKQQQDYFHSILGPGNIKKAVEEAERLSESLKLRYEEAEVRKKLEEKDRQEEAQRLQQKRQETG

[2] = target: T2, GST-tagged USP8 rhodanese domain (174-317) (human, UniProt P40818 174-317); experiment: peptide or protein array; SPOT array, cellulose-bound peptides; GST-tagged Rhodanese domain 150 µM in 5% skim milk in TBST overnight at 4 °C; detected with HRP-conjugated anti-GST antibody
T2 construct: Ubiquitin carboxyl-terminal hydrolase 8 (USP8), human, rhodanese domain, residues 174-317; pETM33 vector, synthesized by GenScript; also called Rhod domain; source: E. coli BL21-Gold (DE3), purified (glutathione sepharose, eluted with reduced glutathione)
T2 sequence (looked up): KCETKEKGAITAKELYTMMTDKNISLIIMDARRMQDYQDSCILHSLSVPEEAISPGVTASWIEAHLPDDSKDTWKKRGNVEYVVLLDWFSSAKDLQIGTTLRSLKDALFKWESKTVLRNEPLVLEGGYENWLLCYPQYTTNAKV

[3] = target: T3, USP8 rhodanese domain (174-317), GST tag cleaved (human, UniProt P40818 174-317); experiment: fluorescence polarisation; competitive: 1.5 µM protein preincubated with 10 nM FITC-labeled peptide, displaced by increasing concentration of unlabeled peptide; 50 mM sodium phosphate pH 7.4, 1 mM DTT
T3 construct: Ubiquitin carboxyl-terminal hydrolase 8 (USP8), human, rhodanese domain, residues 174-317; also called Rhod domain; source: E. coli BL21-Gold (DE3), purified (glutathione sepharose, GST cleaved on beads with HRV 3C protease)
T3 sequence (looked up): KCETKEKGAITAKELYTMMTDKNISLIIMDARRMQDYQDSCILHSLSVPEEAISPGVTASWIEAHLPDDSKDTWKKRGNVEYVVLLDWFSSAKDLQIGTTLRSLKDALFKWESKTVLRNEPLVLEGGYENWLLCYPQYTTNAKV

[4] = target: T4, USP8 Rhod (174–317) (human, UniProt P40818 174-317); experiment: fluorescence polarisation; direct binding: constant concentration of FITC-labeled peptide, increasing concentration of the protein; 50 mM sodium phosphate buffer pH 7.4, 1 mM DTT; KD from a fit to a quadratic equation
T4 construct: Ubiquitin carboxyl-terminal hydrolase 8 (USP8), human, UniProt P40818, rhodanese domain, residues 174-317; Construct in the pETM33 vector, synthesized by GenScript; also called USP8_Rhodanese; USP8 rhodanese domain; source: E. coli BL21-Gold (DE3), purified (GSH sepharose)
T4 sequence (looked up): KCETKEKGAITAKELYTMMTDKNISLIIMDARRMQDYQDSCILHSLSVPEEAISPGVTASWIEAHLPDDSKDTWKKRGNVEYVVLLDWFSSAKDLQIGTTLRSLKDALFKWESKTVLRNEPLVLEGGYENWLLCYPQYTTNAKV

B1: DNAJB6 118-130 peptide, cellulose-bound (SPOT array) (peptide, UniProt O75190 118-130, looked up)
peptide: PFEDFFGNRRGPR
notes: DnaJ homolog subfamily B member 6 (DNAJB6), residues 118-130; holds a partial DFx{2,3}R motif; also called DnaJ homolog subfamily B member 6; source: alanine scan: INTAVIS
Q: Does B1 bind [1]?
A: binds

B2: Keratin-85 41-55 peptide, cellulose-bound (SPOT array) (peptide, UniProt P78386 41-55, looked up)
peptide: GVSCYRGLTGFGSRS
notes: Keratin-85 (KRT85), residues 41-55; holds an Rx[LI]xG motif; also called KRT85_(41 − 55); source: bought: JPT Peptide Technologies, cellulose membrane
Q: Does B2 bind [2]?
A: binds

B3: Tumour protein 63 608-622 peptide, cellulose-bound (SPOT array) (peptide, UniProt Q9H3D4 608-622, looked up)
peptide: HEFSSPSHLLRTPSS
notes: holds an SSPxxL[LM] motif; source: alanine scan: INTAVIS
Q: Does B3 bind [2]?
A: binds

B4: KIAA1614 568-583 peptide, synthetic (peptide)
peptide: GMERVLGGLSSPLRLL
notes: also called positive control; source: JPT Peptide Technologies; free, unlabelled for fluorescence polarisation (GeneCust, >95% purity)
Q: Which Kd [3] does the source give for B4 here?
A: 10 ± 2 µM

B5: Cadherin-1 863-877 peptide, cellulose-bound (SPOT array) (peptide, UniProt P12830 863-877, looked up)
peptide: NEWGNRFKKLADMYG
notes: cadherin-1 (CDH1), residues 863-877; holds an RFxxL motif; also called CDH1_(863 − 877); source: alanine scan: INTAVIS
Q: Does B5 bind [1]?
A: binds

B6: DBP 116-131 peptide, cellulose-bound (SPOT array) (peptide)
peptide: YVDLDAFLLEHGLPPS
notes: also called positive control; source: array of predicted peptides: JPT Peptide Technologies
Q: Does B6 bind [1]?
A: binds

B7: FITC-TET3 1705-1720 peptide (Methylcytosine dioxygenase TET3) (peptide)
peptide: {FITC}-GLALWEAKMKQLAERA
notes: also called probe peptide; source: synthetic peptide, bought: GeneCust (France), > 95% purity
Q: For B7, which Kd [4] is on record?
A: 0.7 µM

B8: TET3 1705-1720 peptide, unlabelled, synthetic (peptide)
peptide: GLALWEAKMKQLAERA
notes: source: synthetic peptide (GeneCust, >95% purity)
Q: Which Kd [3] does the source give for B8 here?
A: 33 ± 9 µM
